From publication PMC10065799, “High-throughput profiling of sequence recognition by tyrosine kinases and SH2 domains using bacterial peptide display” (eLife, 2023) come the findings set out here.

Square brackets hold non-standard residues; d marks the D form. pY = N[C@@H](Cc1ccc(OP(=O)(O)O)cc1)C(=O)O

Broadly, the Km is the concentration of substrate that gives half-maximal velocity.

In assay [1] the target is T1, c-Src kinase domain (Homo sapiens, UniProt P12931). In words: RP-HPLC assay to measure peptide phosphorylation kinetics. The class given is biochemical. Particulars: purified peptide substrate. How it is done: To validate the enrichment scores observed in the c-Src screening data, the phosphorylation rates were measured in vitro with the purified catalytic domain of c-Src and synthetic 11-residue peptides derived from sequences in the pTyr-Var library. […] Reactions were initiated by adding 1 mM ATP. At various time points, 100 μL aliquots were removed and quenched by the addition of EDTA to a final concentration of 25 mM. Each time point sample was analyzed by analytical RP-HPLC, monitoring absorbance at 214 nm. Forty μL of each time point was injected onto a C18 column (ZORBAX 300 SB-C18, 5 μm, 4.6x150 mm). The solvent system used was water with 0.1% trifluoroacetic acid (solvent A) and acetonitrile with 0.1% trifluoroacetic acid (solvent B). […] The fractional product peak area was plotted as a function of reaction time, and the initial linear regime of this plot was fitted to a straight line to determine a reaction rate. Rates were corrected for substrate and enzyme concentration. Reactions were done in triplicate or quadruplicate.

Assay [2] addresses T1, c-Src kinase domain. In words: ADP-Quest continuous fluorimetric kinase assay (Michaelis-Menten parameters and initial rates). The note with it: c-Src kinase domain 10 nM, 100 μM ATP, 37 °C, three to five replicates, error = standard error of global Michaelis-Menten fit. Type of assay: biochemical.
The test system of another assay is Fyn kinase domain. As to the kind of experiment: LC-MS assay of intact SHP2 protein phosphorylation. Type of assay: biochemical, human. The note with it: SHP2 10 μM, kinase 1 μM, 1 hr, 37 °C, 2 to 3 measurements. How it is done:
(§1) The same protocol used to express and purify SH2 domains, excluding co-expression of BirA and addition of biotin, was applied to the expression and purification of the SHP2 variants.
(§2) To pre-activate the kinases, 1 μM of each purified kinase domain was preincubated at 37 °C for 30 min in the same buffer conditions used in the kinase domain peptide display screen, with 1 mM ATP. The reaction of the kinase with SHP2 was initiated with the addition of 10 μM SHP2, and the mixture was incubated in 37 °C for 1 hr. To terminate the reaction, the mixture was quenched with 200 mM EDTA. The reaction mixture was diluted 3:2 in water and injected onto a BEH C8 column (Waters) on a UPLC-MS system (Xevo QToF, Waters). Reverse-phase liquid chromatography was carried out at 0.3 mL/min with solvents A (H2O, 0.1% (v/v) formic acid) and B (acetonitrile, 0.1% (v/v) formic acid). Proteins were eluted over a gradient of 5–95% B for 8.5 min. The protein peak on the chromatogram was deconvoluted using the MaxEnt1 algorithm from 32,000–65,000 Da with a resolution of 1 Da/channel over 30 iterations. Peaks were chosen according to the theoretical MW of the protein within a range of 5 Da, and integrated for the signal intensity.

For a further assay, the system named is FGFR1 kinase domain. In words: LC-MS assay of intact SHP2 protein phosphorylation. Type of assay: biochemical, human. Particulars: SHP2 10 μM, kinase 1 μM, 1 hr, 37 °C, 2 to 3 measurements. The method, then:
as §1, §2

The target in assay [3] is human c-Src SH2 domain (residues 143-250) (human, UniProt P12931-1 143-250, biotin on the Avi tag (co-expression with the biotin ligase BirA)). As to the kind of experiment: fluorescence polarisation; competition: unlabeled phosphopeptide serially diluted against 30 nM fluorescent peptide and 240 nM (1.5 x KD) c-Src SH2; same buffer; 25 °C; cubic binding equation. Particulars: both partners purified.

Consider Ac-AGQEEYSAMRD-NH2 [HRAS-Y64], for which the “Phosphorylation Rate” value on c-Src kinase domain [1] came to 0.156 s⁻¹.

On to “Ac-GAEEEIYGIFGAKKKG-NH2 [SrcTide (2014), previously reported c-Src consensus substrate (Deng et al., 2014)]”, for which, at c-Src kinase domain [2], the Km is 7 ± 3 µM and the kcat amounted to 1.8±0.1 s^–1.

B1: SHP2 wild-type: human full-length SHP2 (residues 1–526; C459E) (protein, UniProt Q06124 2-593, looked up, variant C459E)
Tyrosine-protein phosphatase …: TSRRWFHPNITGVEAENLLLTRGVDGSFLARPSKSNPGDFTLSVRRNGAVTHIKIQNTGDYYDLYGGEKFATLAELVQYYMEHHGQLKEKNGDVIELKYPLNCADPTSERWFHGHLSGKEAEKLLTEKGKHGSFLVRESQSHPGDFVLSVRTGDDKGESNDGKSKVTHVMIRCQELKYDVGGGERFDSLTDLVEHYKKNPMVETLGTVLQLKQPLNTTRINAAEIESRVRELSKLAETTDKVKQGFWEEFETLQQQECKLLYSRKEGQRQENKNKNRYKNILPFDHTRVVLHDGDPNEPVSDYINANIIMPEFETKCNNSKPKKSYIATQGCLQNTVNDFWRMVFQENSRVIVMTTKEVERGKSKCVKYWPDEYALKEYGVMRVRNVKESAAHDYTLRELKLSKVGQGNTERTVWQYHFRTWPDHGVPSDPGGVLDFLEEVHHKQESIMDAGPVVVHESAGIGRTGTFIVIDILIDIIREKGVDCDIDVPKTIQMVRSQRSGMVQTEAQYRFIYMAVQHYIETLQRRIEEEQKSKRKGHEYTNIKYSLADQTSGDQSPLPPCTPTPPCAEMREDSARVYENVGLMQQQKSFR
In the case of B1, the “phosphorylation of intact SHP2 by Fyn” value in the assay on Fyn kinase domain is “slowest”. Further, in the assay on FGFR1 kinase domain, the “phosphorylation of intact SHP2 by FGFR1” value was “fastest”.

B2: ACTA1_Y171_YF phosphopeptide Ac-QPIFEG(pY)ALPHAG-NH2 (peptide)
peptide: Ac-QPIFEG[pY]ALPHAG-NH2
SMILES: CC[C@H](C)[C@H](NC(=O)[C@@H]1CCCN1C(=O)[C@H](CCC(N)=O)NC(C)=O)C(=O)N[C@@H](Cc1ccccc1)C(=O)N[C@@H](CCC(=O)O)C(=O)NCC(=O)N[C@@H](Cc1ccc(OP(=O)(O)O)cc1)C(=O)N[C@@H](C)C(=O)N[C@@H](CC(C)C)C(=O)N1CCC[C@H]1C(=O)N[C@@H](Cc1c[nH]cn1)C(=O)N[C@@H](C)C(=O)NCC(N)=O
notes: source: synthetic peptide (synthesized in-house, RP-HPLC purified)
For B2, the binding result in assay [3] is listed as “binds”.

B3: ACTA1_Y171_A172G_YF phosphopeptide Ac-QPIFEG(pY)GLPHAG-NH2 (peptide)
peptide: Ac-QPIFEG[pY]GLPHAG-NH2
SMILES: CC[C@H](C)[C@H](NC(=O)[C@@H]1CCCN1C(=O)[C@H](CCC(N)=O)NC(C)=O)C(=O)N[C@@H](Cc1ccccc1)C(=O)N[C@@H](CCC(=O)O)C(=O)NCC(=O)N[C@@H](Cc1ccc(OP(=O)(O)O)cc1)C(=O)NCC(=O)N[C@@H](CC(C)C)C(=O)N1CCC[C@H]1C(=O)N[C@@H](Cc1c[nH]cn1)C(=O)N[C@@H](C)C(=O)NCC(N)=O
notes: as for B2
For the molecule B3, the binding result in assay [3] is “binds”.
